The source of these data is patent publication US20130316376A1 (SPIBER TECHNOLOGIES, published 2013).

Assay [1] addresses T1, albumin from rabbit serum (rabbit, UniProt P49065 25-608).
T1 construct: mature; Native serum protein; the form follows from the source (serum); also called albumin (~70 kDa)
Briefly: fibers incubated with rabbit serum, low pH elution, non-reducing SDS-PAGE.

Assay [2] has as its target T2, albumin from human blood plasma (human, UniProt P02768 25-609).
T2 construct: mature; Native plasma protein; also called human albumin
Kind of assay: films incubated with human blood plasma, low pH elution, non-reducing SDS-PAGE.

T1 sequence (P49065 25-608): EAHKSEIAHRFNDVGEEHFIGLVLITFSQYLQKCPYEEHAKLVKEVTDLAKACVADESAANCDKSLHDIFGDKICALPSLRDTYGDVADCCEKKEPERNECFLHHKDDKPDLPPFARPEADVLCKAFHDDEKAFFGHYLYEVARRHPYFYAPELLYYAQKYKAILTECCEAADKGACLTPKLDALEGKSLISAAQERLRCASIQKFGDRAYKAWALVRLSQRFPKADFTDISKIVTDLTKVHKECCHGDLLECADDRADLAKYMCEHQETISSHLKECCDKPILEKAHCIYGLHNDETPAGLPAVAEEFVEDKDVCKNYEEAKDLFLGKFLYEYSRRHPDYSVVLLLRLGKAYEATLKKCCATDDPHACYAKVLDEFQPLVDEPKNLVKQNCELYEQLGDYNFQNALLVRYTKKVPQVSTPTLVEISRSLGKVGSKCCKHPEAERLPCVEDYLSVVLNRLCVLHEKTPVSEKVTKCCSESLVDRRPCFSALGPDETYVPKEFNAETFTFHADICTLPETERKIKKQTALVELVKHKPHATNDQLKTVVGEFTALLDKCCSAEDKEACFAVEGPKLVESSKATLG

B1: Rep4CT (Protease 3C cleavage product of His6ZQGRep4CT) (other)
chain: GQGGYGGLGQGGYGQGAGSSAAAAAAAAAAAAGGQGGQGQGGYGQGSGGSAAAAAAAAAAAAAAAGRGQGGYGQGSGGNAAAAAAAAAAAAAAAGQGGQGGYGRQSQGAGSAAAAAAAAAAAAAAGSGQGGYGGQGQGGYGQSSASASAAASAASTVANSVSRLSSPSAVSRVSSAVSSLVSNGQVNMAALPNIISNISSSVSASAPGASGCEVIVQALLEVITALVQIVSSSSVGYINPSAVNQITNVVANAMAQVMG
notes: made by cleaving His6ZQGRep4CT; also called GP-Rep4CT
With B1, the binding result in assay [1] is reported as “binds”.

B2: His6AbdQGRep4CT (designed binder)
chain: MGSSGHHHHHHMLAEAKVLANRELDKYGVSDYYKNLINNAKTVEGVKALIDEILAALPLEALFQGPNSGQGGYGGLGQGGYGQGAGSSAAAAAAAAAAAAGGQGGQGQGGYGQGSGGSAAAAAAAAAAAAAAAGRGQGGYGQGSGGNAAAAAAAAAAAAAAAGQGGQGGYGRQSQGAGSAAAAAAAAAAAAAAGSGQGGYGGQGQGGYGQSSASASAAASAASTVANSVSRLSSPSAVSRVSSAVSSLVSNGQVNMAALPNIISNISSSVSASAPGASGCEVIVQALLEVITALVQIVSSSSVGYINPSAVNQITNVVANAMAQVMG
notes: tested as films and fibers; also called Abd-Rep4CT; HisAbdQG4RepCT
For the molecule B2, the binding result in assay [2] is recorded as “binds”.
